Laboratory results reported in patent publication US9822156B2, “Amyloid beta expression constructs and uses therefor” (Whitehead Institute for Biomedical Research, priority 2014, dated 2017).

B1: Aβ42-Arctic-4X: doxycycline-inducible construct, insulin signal peptide and four copies of Aβ42 E22G, SEQ ID NO:37 (protein)
chain: MALWMRLLPLLALLALWGPDPAAADAEFRHDSGYEVHHQKLVFFAGDVGSNKGAIIGLMVGGVVIARRDAEFRHDSGYEVHHQKLVFFAGDVGSNKGAIIGLMVGGVVIAKRDAEFRHDSGYEVHHQKLVFFAGDVGSNKGAIIGLMVGGVVIARRDAEFRHDSGYEVHHQKLVFFAGDVGSNKGAIIGLMVGGVVIA

Experiments:
[1] = system: 293T cells; assay: TOXILIGHT cytotoxicity assay in stable doxycycline-inducible poly-Aβ 293T cell lines; type: cell-based; settings: 72-96 hours following doxycycline induction
Excerpt: Similar to the poly-Aβ (Aβ40 or Aβ42_1X/4X/6X/8X) expression constructs in yeast (see Example 1), a poly-Aβ toxicity model was developed in mammalian cells. Stable cell lines with chromosomally-integrated tetracycline (doxycycline)-inducible […] transgenes (Aβ42-4X, Aβ42-6X, Aβ40-4X, Aβ40-6X and Aβ42-Arctic-4X) linked to an N-terminal insulin signal peptide were generated (FIGS. 13A-13B). These expression constructs were generated using the pLix402 lentiviral plasmid (FIG. 12). The poly-Aβ constructs were individually transfected into 293T cells along with the lentiviral packaging plasmid psPAX and the viral envelope-expressing plasmid mMD2.G using LIPOFECTAMINE® 2000 (Invitrogen) transfection reagent to generate lentivirus containing the poly-Aβ transgene. The virus was harvested from the supernatant of transfected 293T cells 2 and 3 days post-transfection and subsequently purified and concentrated using the LENTI-X™ Maxi Purification kit (Clontech) according to the manufacturer's instructions.
To generate stable cells harboring the expression transgene for the poly-Aβ constructs, 293T cells were infected using POLYBRENE® infection reagent (Sigma Aldrich), which is used to introduce retroviral vectors into mammalian cells. Infected cells were then selected using puromycin (2-10 μg/ml). Infected cells harboring the transgene survive this selection pressure whereas the control cells without the transgene die in 2-3 days. Aliquots of the selected cells were frozen in liquid nitrogen or maintained and propagated for further applications.
Expression of Aβ peptide from these stable cell lines was measured in the culture supernatant 72-96 hours following doxycycline induction (FIG. 13D). Toxicity was measured 72-96 hours following doxycycline induction using a TOXILIGHT™ cytotoxicity assay (Lonza) as described in Example 2.

[2] = system: Rat embryonic cortical neurons; assay: […] ATP viability assay in neurons infected with lentiviral poly-Aβ constructs; type: cell-based; settings: three weeks post doxycycline-induction (2 μg/ml)
Excerpt: Rat embryonic cortical neurons were infected with lentiviral poly-Aβ expression constructs to model poly-Aβ toxicity. Tetracycline (doxycycline)-inducible poly-Aβ (Aβ42-4X, Aβ42-6X, Aβ40-4X, Aβ40-6X, and Aβ42-Arctic-4X) viral constructs described in Example 5 were used to express poly-Aβ constructs in rat cortical neurons. In each expression construct, the poly-Aβ coding sequence is linked to an N-terminal insulin signal peptide. The poly-Aβ expression plasmids were packaged in lentiviral particles, which were generated by 293T cells as described in Example 3.
Rat cortical neurons were enriched from cortices dissected out of embryonic (E18) rat brains and enriched in adherent monolayer culture as described in Example 3. Purified lentiviral preparations at different MOI were used to infect these cortical neurons to express poly-Aβ transgenes. Three days post-infection, expression of poly-Aβ was induced by adding doxycycline (2 μg/ml) to the infected cultures.

Molecule	Aβ peptide-mediated cytotoxic effect (adenylate kinase release), rank order [1]	cytotoxicity (viability by ATP levels) [2]
Aβ42-4X: doxycycline-inducible construct, insulin signal peptide and four copies of Aβ42, SEQ ID NO:35	Aβ42-6X≧Aβ42-Arctic-4X≧Aβ42-4X≧AB40-6X≧Aβ40-4X	profound cytotoxicity compared to Aβ40-4X
B1	Aβ42-6X≧Aβ42-Arctic-4X≧Aβ42-4X≧AB40-6X≧Aβ40-4X	profound cytotoxicity compared to Aβ40-4X
